The values below come from publication PMC12102759.

B1: TET3 peptide 458-473 (Methylcytosine dioxygenase TET3), 16-mer library wild type / NSP3 SUD-M (ORF1ab Nsp3c SUD-M, residues 1356-1493) (parent)
chain 1: DPMAELEQLLGSASDY
chain 2: LPSIISNEKQEILGTVSWNLREMLAHAEETRKLMPVCVETKAIVSTIQRKYKGIKIQEGVVDYGARFYFYTSKTTVASLINTLNDLNETLVTMPLGYVTHGLNLEEAARYMRSLKVPATVSVSSPDAVTAYNGYLTSS
B2: PRDM14 peptide 196-211 (PR domain zinc finger protein 14), 16-mer library wild type / NSP3 SUD-M (ORF1ab Nsp3c SUD-M, residues 1356-1493) (parent)
chain 1: QFTEEDLHFVLYGVTP
chain 2: B1 chain 2
B3: PEX5 peptide 240-255 (Peroxisomal targeting signal 1 receptor), 16-mer library wild type / PEX14 Pex14 (PEX14 PEX14, residues 16-84) (parent)
chain 1: AEQWAAEFIQQQGTSD
chain 2: TPGSENVLPREPLIATAVKFLQNSRVRQSPLATRRAFLKKKGLTDEEIDMAFQQSGTAADEPSSLGPAT

In the first assay the parent is B1.
Assay: not given
The following applies: with NSP3 SUD-M (ORF1ab Nsp3c SUD-M, residues 1356-1493); bait immobilised on MaxiSorp plates (10 µg), library pre-cleared on GST, 2 h binding at 4 °C, five washes; one round per day, days 1-4; value from days 2 and 3; keep out of graded; scale: average fractional NGS count over selection days 2 and 3.
For the variant chain 1 DPMAELGQLLGSASDY [chain 1 E7G], the screen value came to 0. Still for that read-out and setting: for chain 1 DPMAEKEQLLGSASDY [chain 1 L6K] the value was 0; for chain 1 DPMAEWEQLLGSASDY [chain 1 L6W], 0; for chain 1 DPMAELEQLLSSASDY [chain 1 G11S], 0.

With chain 1 DPMAELEQLLASASDY [chain 1 G11A], the screen value came out at 0. In the case of chain 1 DPMAELEQLLHSASDY [chain 1 G11H], the screen value came to 0.

For the variant chain 1 DPMAELEQLLISASDY [chain 1 G11I], the screen value was 0.

As for chain 1 DPMAELEQLLGSNSDY [chain 1 A13N], the screen value came to 0.

Turning to chain 1 DPMAELEQLLGSESDY [chain 1 A13E], the screen value was determined as 0.

As to chain 1 DPMAQLEQLLGSASDY [chain 1 E5Q], the screen value was found to be 0. Same read-out and setting: for chain 1 DPMAKLEQLLGSASDY [chain 1 E5K] the value was 0; for chain 1 DPMAELETLLGSASDY [chain 1 Q8T], 0. Still for that read-out and setting: for chain 1 DPMAELEPLLGSASDY [chain 1 Q8P] the value was 0; for chain 1 DPMAELEQLLGSASNY [chain 1 D15N], 0; for chain 1 DPMAELEQLLGKASDY [chain 1 S12K], 0. For chain 1 DPMAELEQLLGSASDA [chain 1 Y16A], the screen value was found to be 0. Regarding chain 1 DDMAELEQLLGSASDY [chain 1 P2D], the screen value came to 0. Still for that read-out and setting: for chain 1 DHMAELEQLLGSASDY [chain 1 P2H] the value was 0; for chain 1 DRMAELEQLLGSASDY [chain 1 P2R], 0. The same measure, in the same setting: for chain 1 DPMAELEQLLGSAWDY [chain 1 S14W] the value was 0.

In the next assay the parent is B2.
Assay: not given
The following applies: with NSP3 SUD-M (ORF1ab Nsp3c SUD-M, residues 1356-1493); bait immobilised on MaxiSorp plates (10 µg), library pre-cleared on GST, 2 h binding at 4 °C, five washes; one round per day, days 1-4; value from days 2 and 3; keep out of graded; scale: average fractional NGS count over selection days 2 and 3.
In the case of chain 1 QFTEEDLHFVLPGVTP [chain 1 Y12P], the screen value turned out to be 0. chain 1 QFTEEDLHFVLFGVTP [chain 1 Y12F]: the screen value is 1.23e-05. Same read-out and setting: for chain 1 QFTDEDLHFVLYGVTP [chain 1 E4D] the value was 2.34e-05; for chain 1 QFTTEDLHFVLYGVTP [chain 1 E4T], 1.11e-05; for chain 1 QFTNEDLHFVLYGVTP [chain 1 E4N], 0. On the same count and under the same terms, in the case of chain 1 QFTFEDLHFVLYGVTP [chain 1 E4F] it was 1.23e-05. chain 1 QFTEEDLHFVLYGVTW [chain 1 P16W]: the screen value was 2.83e-05. chain 1 QFTEEDIHFVLYGVTP [chain 1 L7I]: the screen value was found to be 1.23e-05.

In the case of chain 1 QFTEEDGHFVLYGVTP [chain 1 L7G], the screen value came out at 0. For chain 1 QFTEEDKHFVLYGVTP [chain 1 L7K], the screen value was 0.

Consider chain 1 QFTEEDLHFKLYGVTP [chain 1 V10K], for which the screen value is 0. Turning to chain 1 QFTEEDLHFELYGVTP [chain 1 V10E], the screen value came to 0. Same read-out and setting: in the case of chain 1 QFTEEDLHFDLYGVTP [chain 1 V10D] it was 0. Same read-out and setting: in the case of chain 1 QFTEEDLHFNLYGVTP [chain 1 V10N] it was 0; in that of chain 1 QFTEEDLHFHLYGVTP [chain 1 V10H], 0. Take chain 1 QFTEEDLSFVLYGVTP [chain 1 H8S]: the screen value came out at 2.39e-05. Same read-out and setting: for chain 1 QFTEEDLPFVLYGVTP [chain 1 H8P] the value was 2.01e-05. The same measure, in the same setting: in the case of chain 1 QFTEEDLHFVLYGDTP [chain 1 V14D] it was 3.47e-05; in that of chain 1 QFTEEDLHFVLYGQTP [chain 1 V14Q], 0; in that of chain 1 QFTEEDLHFVLYGYTP [chain 1 V14Y], 1.26e-05. Take chain 1 QFTEEDLHFVLYGNTP [chain 1 V14N]: the screen value was 3.28e-05. As to chain 1 QFTEEDLHFVLYGETP [chain 1 V14E], the screen value worked out at 3.19e-05.

For chain 1 QFTEEDLHFVLYGVMP [chain 1 T15M], the screen value stood at 0. On to chain 1 QFTEEDLHFVLYGVRP [chain 1 T15R], for which the screen value amounted to 0. Still for that read-out and setting: for chain 1 QFTEEDLHFVLYGVFP [chain 1 T15F] the value was 0; for chain 1 QFTESDLHFVLYGVTP [chain 1 E5S], 0; for chain 1 QFTERDLHFVLYGVTP [chain 1 E5R], 0.

In the case of chain 1 QFTEEDLHFVAYGVTP [chain 1 L11A], the screen value is 0. Take chain 1 QFTEEDLHFVMYGVTP [chain 1 L11M]: the screen value was determined as 0. Same read-out and setting: for chain 1 QFTEEDLHFVTYGVTP [chain 1 L11T] the value was 0; for chain 1 QFTEEDLHFVEYGVTP [chain 1 L11E], 0. Still for that read-out and setting: in the case of chain 1 QFTEEDLHFVNYGVTP [chain 1 L11N] it was 0; in that of chain 1 QFTEEDLHFVDYGVTP [chain 1 L11D], 0. On the same count and under the same terms, in the case of chain 1 QFTEEDLHFVGYGVTP [chain 1 L11G] it was 0; in that of chain 1 QFIEEDLHFVLYGVTP [chain 1 T3I], 0. In the case of chain 1 QFQEEDLHFVLYGVTP [chain 1 T3Q], the screen value turned out to be 0. Consider chain 1 QYTEEDLHFVLYGVTP [chain 1 F2Y], for which the screen value was found to be 0. With chain 1 QFTEEDLHDVLYGVTP [chain 1 F9D], the screen value is 0.

The variants in a further assay derive from B3. Nature of the assay: proteomic peptide phage display deep mutational scan (ProP-PD DMS): M13 P8 16-mer library selected against immobilised GST-tagged bait for four days (rounds), NGS of the eluted pools per day and pseudo-replica. As to conditions: with PEX14 Pex14 (PEX14 PEX14, residues 16-84); bait immobilised on MaxiSorp plates (10 µg), library pre-cleared on GST, 2 h binding at 4 °C, five washes; one round per day, days 1-4; value from days 2 and 3; keep out of graded; scale: average fractional NGS count over selection days 2 and 3.
In the case of chain 1 AEYWAAEFIQQQGTSD [chain 1 Q3Y], the screen value was 9.56e-05. The same measure, in the same setting: for chain 1 AEEWAAEFIQQQGTSD [chain 1 Q3E] the value was 0.000171.

For the variant chain 1 AEFWAAEFIQQQGTSD [chain 1 Q3F], the screen value stood at 0. With chain 1 AQQWAAEFIQQQGTSD [chain 1 E2Q], the screen value was determined as 5.27e-05. As for chain 1 AEQWAAEFSQQQGTSD [chain 1 I9S], the screen value is 0.00015.

For chain 1 AEQWAAEFPQQQGTSD [chain 1 I9P], the screen value turned out to be 0.000232.

For the variant chain 1 AEQWAAMFIQQQGTSD [chain 1 E7M], the screen value stood at 0.000317. On the same count and under the same terms, for chain 1 AEQWAAFFIQQQGTSD [chain 1 E7F] the value was 0.00013; for chain 1 AEQWAARFIQQQGTSD [chain 1 E7R], 0.000213; for chain 1 AEQWAANFIQQQGTSD [chain 1 E7N], 0.000491. On the same count and under the same terms, for chain 1 AEQWAAPFIQQQGTSD [chain 1 E7P] the value was 0.000118. Regarding chain 1 AEQWAASFIQQQGTSD [chain 1 E7S], the screen value was determined as 0.000242. On the same count and under the same terms, for chain 1 AEQWAAEFIQQQNTSD [chain 1 G13N] the value was 0.000117; for chain 1 AEQWAAEFIQQQLTSD [chain 1 G13L], 0; for chain 1 AEQWAAEFIQQQRTSD [chain 1 G13R], 0. The same measure, in the same setting: for chain 1 AEQWAAEDIQQQGTSD [chain 1 F8D] the value was 0.000118; for chain 1 AEQWAAEHIQQQGTSD [chain 1 F8H], 0.000234; for chain 1 AEQWAAEVIQQQGTSD [chain 1 F8V], 0.

Take chain 1 AEQWAAEIIQQQGTSD [chain 1 F8I]: the screen value amounted to 9.8e-05. Still for that read-out and setting: in the case of chain 1 AEQWAAEKIQQQGTSD [chain 1 F8K] it was 0.

With chain 1 AEQWAAEFIQQTGTSD [chain 1 Q12T], the screen value worked out at 0.000175. On the same count and under the same terms, in the case of chain 1 AEQWAAEFIQQNGTSD [chain 1 Q12N] it was 0.000241.

As for chain 1 AEQWAAEFIQQRGTSD [chain 1 Q12R], the screen value was determined as 0.

Regarding chain 1 AEQWAAEFISQQGTSD [chain 1 Q10S], the screen value was 0.00027. chain 1 AEQWAHEFIQQQGTSD [chain 1 A6H]: the screen value was found to be 0.000232. The same measure, in the same setting: in the case of chain 1 AEQWAQEFIQQQGTSD [chain 1 A6Q] it was 0.000319; in that of chain 1 AEQWAAEFIQQQGTED [chain 1 S15E], 0.000269; in that of chain 1 AEQWAAEFIQQQGTFD [chain 1 S15F], 9.56e-05. Turning to chain 1 AEQWAAEFIQDQGTSD [chain 1 Q11D], the screen value stood at 0. The same measure, in the same setting: for chain 1 AEQWAAEFIQTQGTSD [chain 1 Q11T] the value was 0. Same read-out and setting: in the case of chain 1 AEQWPAEFIQQQGTSD [chain 1 A5P] it was 0.000159. The same measure, in the same setting: for chain 1 AEQWVAEFIQQQGTSD [chain 1 A5V] the value was 0.000326; for chain 1 AEQWGAEFIQQQGTSD [chain 1 A5G], 0.

For the variant chain 1 GEQWAAEFIQQQGTSD [chain 1 A1G], the screen value turned out to be 0.

As for chain 1 LEQWAAEFIQQQGTSD [chain 1 A1L], the screen value is 0.000125.

In the case of chain 1 FEQWAAEFIQQQGTSD [chain 1 A1F], the screen value is 0.00013.
